1 substance from PMC3406103 can be followed below.

The subject of the series is C/EBPβ (endogenous, HaCaT nuclear extract). Put plainly: EMSA. As to conditions: 10 mM Tris-HCl pH 7.5, 50 mM NaCl, 1 mM EDTA, 15% glycerol, 1 mg/ml BSA, 25 µg/ml poly(dI-dC), 11.5 mM DTT, 26 µg/ml aprotinin, 1.5 mM PMSF, 0.5 mg/ml salmon …; scale: % of pLXSN control, normalized to C/EBPβ level. (In EMSA bound probe runs differently from free probe, usually more slowly.)

CCL20 promoter nt 734-748: the binding signal was less than 50.
